According to article PMC12319226 (Frontiers in Bioinformatics, 2025):

Tests used:
Assay in all cases: BLI
Conditions in all cases: both partners purified
[1] = biological target: T1, fHbp m001015 (Neisseria meningitidis fHbp v3.28, …, point mutant)
T1 chain: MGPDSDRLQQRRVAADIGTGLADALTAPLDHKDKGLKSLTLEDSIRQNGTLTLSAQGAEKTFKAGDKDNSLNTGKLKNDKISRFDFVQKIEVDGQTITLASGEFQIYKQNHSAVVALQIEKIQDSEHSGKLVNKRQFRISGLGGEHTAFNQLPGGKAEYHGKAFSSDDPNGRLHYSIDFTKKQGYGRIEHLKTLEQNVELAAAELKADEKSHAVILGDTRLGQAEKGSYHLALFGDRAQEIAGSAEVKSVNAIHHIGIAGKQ

[2] = biological target: T2, fHbp m001099 (Neisseria meningitidis fHbp v3.28-based …, point mutant)
T2 chain: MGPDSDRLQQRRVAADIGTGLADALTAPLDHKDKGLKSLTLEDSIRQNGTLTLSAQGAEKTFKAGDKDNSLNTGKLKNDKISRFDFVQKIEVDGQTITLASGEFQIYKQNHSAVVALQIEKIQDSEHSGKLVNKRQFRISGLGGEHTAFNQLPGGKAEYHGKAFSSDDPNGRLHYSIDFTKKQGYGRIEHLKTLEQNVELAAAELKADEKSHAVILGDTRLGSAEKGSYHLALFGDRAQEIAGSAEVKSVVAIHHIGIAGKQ

[3] = biological target: T3, fHbp m001180 (Neisseria meningitidis fHbp v3.28-based …, point mutant)
T3 chain: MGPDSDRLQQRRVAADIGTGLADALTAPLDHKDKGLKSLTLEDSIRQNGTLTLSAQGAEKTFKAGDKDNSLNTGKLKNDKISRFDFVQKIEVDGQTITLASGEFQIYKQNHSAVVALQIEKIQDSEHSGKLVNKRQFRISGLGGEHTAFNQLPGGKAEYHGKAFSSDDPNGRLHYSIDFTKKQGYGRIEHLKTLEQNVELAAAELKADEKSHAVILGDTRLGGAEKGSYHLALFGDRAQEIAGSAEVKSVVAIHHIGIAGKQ

[4] = biological target: T4, fHbp m001200 (Neisseria meningitidis fHbp v3.28-based …, point mutant)
T4 chain: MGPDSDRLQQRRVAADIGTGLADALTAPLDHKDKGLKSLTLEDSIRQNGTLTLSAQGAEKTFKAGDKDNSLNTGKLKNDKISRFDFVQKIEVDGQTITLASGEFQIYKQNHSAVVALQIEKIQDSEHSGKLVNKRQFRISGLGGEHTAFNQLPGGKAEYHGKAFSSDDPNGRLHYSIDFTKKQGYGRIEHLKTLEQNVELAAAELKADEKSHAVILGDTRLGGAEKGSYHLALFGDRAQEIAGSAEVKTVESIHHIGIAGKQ

[5] = biological target: T5, fHbp m001211 (Neisseria meningitidis fHbp v3.28-based …, point mutant)
T5 chain: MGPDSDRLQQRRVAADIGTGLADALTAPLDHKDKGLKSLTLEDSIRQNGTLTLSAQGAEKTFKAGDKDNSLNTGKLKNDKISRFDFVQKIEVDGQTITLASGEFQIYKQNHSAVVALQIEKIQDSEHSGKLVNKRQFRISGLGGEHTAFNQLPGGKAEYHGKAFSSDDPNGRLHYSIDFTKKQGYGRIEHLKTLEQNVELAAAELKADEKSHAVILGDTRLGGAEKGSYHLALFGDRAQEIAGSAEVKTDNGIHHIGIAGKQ

[6] = biological target: T6, fHbp m001524 (Neisseria meningitidis, fHbp …, point mutant)
T6 chain: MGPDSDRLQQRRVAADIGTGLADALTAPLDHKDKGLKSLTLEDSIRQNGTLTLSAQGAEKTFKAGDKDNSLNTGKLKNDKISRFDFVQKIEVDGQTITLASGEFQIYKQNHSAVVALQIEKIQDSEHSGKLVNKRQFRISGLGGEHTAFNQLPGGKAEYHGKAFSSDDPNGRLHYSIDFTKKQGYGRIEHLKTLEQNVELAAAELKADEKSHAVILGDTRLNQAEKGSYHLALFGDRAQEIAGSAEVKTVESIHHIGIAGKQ

[7] = biological target: T7, fHbp m001660 (Neisseria meningitidis, fHbp …, point mutant)
T7 chain: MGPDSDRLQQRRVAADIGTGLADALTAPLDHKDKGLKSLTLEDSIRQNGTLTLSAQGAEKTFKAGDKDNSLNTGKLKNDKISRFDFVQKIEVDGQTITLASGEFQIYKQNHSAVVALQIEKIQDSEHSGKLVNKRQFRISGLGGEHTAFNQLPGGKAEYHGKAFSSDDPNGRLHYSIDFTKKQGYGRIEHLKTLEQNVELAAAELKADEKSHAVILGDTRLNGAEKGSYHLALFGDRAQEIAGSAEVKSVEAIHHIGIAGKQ

[8] = biological target: T8, fHbp m001661 (Neisseria meningitidis, fHbp …, point mutant)
T8 chain: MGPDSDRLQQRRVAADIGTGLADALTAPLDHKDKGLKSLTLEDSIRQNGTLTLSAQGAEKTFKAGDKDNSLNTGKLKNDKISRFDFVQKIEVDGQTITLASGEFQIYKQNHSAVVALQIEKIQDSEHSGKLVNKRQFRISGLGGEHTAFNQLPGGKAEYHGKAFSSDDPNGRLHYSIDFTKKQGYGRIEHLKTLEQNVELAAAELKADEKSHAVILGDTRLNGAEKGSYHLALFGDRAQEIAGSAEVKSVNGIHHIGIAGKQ

[9] = biological target: T9, fHbp m001672 (Neisseria meningitidis, fHbp …, point mutant)
T9 chain: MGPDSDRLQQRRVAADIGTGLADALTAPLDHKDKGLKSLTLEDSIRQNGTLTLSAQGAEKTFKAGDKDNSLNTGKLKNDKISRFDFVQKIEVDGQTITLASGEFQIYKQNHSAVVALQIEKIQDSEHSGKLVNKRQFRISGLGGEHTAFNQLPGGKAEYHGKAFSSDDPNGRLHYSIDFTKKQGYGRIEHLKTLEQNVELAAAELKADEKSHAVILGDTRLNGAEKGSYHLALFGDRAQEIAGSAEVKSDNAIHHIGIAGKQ

B1: mAb 1E6 (human) (antibody, V domains shown)
VH: EVQLVQSGAEVKKPGSSVKVSCKASGGTVIDYPITWVRQAPGQGLEWVGGFVPLFRTSNYGQKFQGRVTITADKSTSTASMELNSLTSEDTAIYYCARGDTAMGPFDYWGQGTLVTVSS
VL: SYVLTQPPSLSVAPGKTATLTCGGNNIAGKTVHWYQQRPGQAPVLVISYDSDRPSGIPERFSGSNSANTATLTISRVEAGDEADYYCQVWDRNSDHWVFGGGTKLTVL
notes: source: Expi293, purified (MabSelect SuRe, SEC); copies: 2 + 2
Kd [1]: 1.11 nM
koff [1]: 0.000418 s⁻¹
kon [1]: 375100 ± 1120 M⁻¹ s⁻¹
Kd [2]: 0.841 nM
koff [2]: 0.000237 s⁻¹
kon [2]: 281500 ± 1290 M⁻¹ s⁻¹
Kd [3]: 0.574 nM
koff [3]: 0.000278 s⁻¹
kon [3]: 485200 ± 1980 M⁻¹ s⁻¹
Kd [4]: 0.219 nM
koff [4]: 0.000303 s⁻¹
kon [4]: 1.385e+06 ± 5610 M⁻¹ s⁻¹
Kd [5]: 0.507 nM
koff [5]: 0.000219 s⁻¹
kon [5]: 431400 ± 2210 M⁻¹ s⁻¹
Kd [6]: 0.742 nM
koff [6]: 0.000167 s⁻¹
kon [6]: 224700 ± 1680 M⁻¹ s⁻¹
Kd [7]: 0.706 nM
koff [7]: 0.000209 s⁻¹
kon [7]: 296000 ± 3450 M⁻¹ s⁻¹
Kd [8]: 0.678 nM
koff [8]: 0.000193 s⁻¹
kon [8]: 285300 ± 2180 M⁻¹ s⁻¹
Kd [9]: 1 nM
koff [9]: 0.00032 s⁻¹
kon [9]: 320000 ± 1490 M⁻¹ s⁻¹

B2: chimeric antibody h12C1 (antibody, V domains shown)
VH: QVQLQESGPELVKPGASVKISCKASGYSFSDYNMSWVKQSNGKSLEWIGIIDPKYGTINYNQKFKGKATLTVDQASSTAYMQLNSLTSEDSAVYYCVRDYYGSSYFDYWGQGTTLTVSS
VL: DIVLTQSPSSIYASLGERVTLTCKASQDIHNYLNWFQQKPGKSPKTLIYRANRLVDGVPSRFSGGGSGQDYSLTISSLEFEDIGIYYCLQYDEFPPTFGGGTRLEIK
notes: also called humanized 12C1; source: Expi293, purified (MabSelect SuRe, SEC); copies: 2 + 2
Kd [1]: 187 nM
koff [1]: 0.02355 ± 0.000153 s⁻¹
kon [1]: 126000 ± 5980 M⁻¹ s⁻¹
Kd [2]: 44 nM
koff [2]: 0.0106 s⁻¹
kon [2]: 241000 ± 3220 M⁻¹ s⁻¹
Kd [3]: 69.9 nM
koff [3]: 0.0158 s⁻¹
kon [3]: 227000 ± 3250 M⁻¹ s⁻¹
Kd [4]: 0.243 nM
koff [4]: 0.000202 s⁻¹
kon [4]: 830700 ± 4100 M⁻¹ s⁻¹
Kd [5]: 19.8 nM
koff [5]: 0.00753 s⁻¹
kon [5]: 381300 ± 3730 M⁻¹ s⁻¹
Kd [6]: 0.701 nM
koff [6]: 0.000117 s⁻¹
kon [6]: 167000 ± 1950 M⁻¹ s⁻¹
Kd [7]: 139 nM
koff [7]: 0.0649 ± 0.00238 s⁻¹
kon [7]: 466000 ± 71500 M⁻¹ s⁻¹
Kd [8]: 167 nM
koff [8]: 0.0207 ± 0.000141 s⁻¹
kon [8]: 124000 ± 4490 M⁻¹ s⁻¹
Kd [9]: 117 nM
koff [9]: 0.01791 ± 0.000106 s⁻¹
kon [9]: 154000 ± 3920 M⁻¹ s⁻¹
